The source of these data is patent US20210253725A1 (BIONTECH, published 2021).

For assay [1], the target named is T1, CD134 expressed on the cell surface of HT1080_OX40 cells (human, UniProt P43489 29-277).
T1 sequence (looked up): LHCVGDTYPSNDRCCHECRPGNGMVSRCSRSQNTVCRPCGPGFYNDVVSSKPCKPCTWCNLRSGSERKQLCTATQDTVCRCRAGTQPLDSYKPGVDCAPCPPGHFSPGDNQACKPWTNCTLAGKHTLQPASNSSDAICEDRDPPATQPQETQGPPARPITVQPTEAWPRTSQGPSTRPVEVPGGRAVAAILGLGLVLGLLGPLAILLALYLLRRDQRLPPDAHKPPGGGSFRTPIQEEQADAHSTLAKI
The assay can be described thus: cell-based or functional assay.

Assay [2] deals with T1, CD134 expressed on the cell surface of …. The assay can be described thus: HT1080_OX40 cells, imaging.
Assay [3] concerns the target T2, CD134 protein (His-tagged, Sino Biological Inc. 10481-H08H) (human, UniProt P43489 29-216).
T2 construct: bought protein coated on ELISA plates; also called OX40; TNFRSF4; not shown: His tag
T2 sequence (looked up): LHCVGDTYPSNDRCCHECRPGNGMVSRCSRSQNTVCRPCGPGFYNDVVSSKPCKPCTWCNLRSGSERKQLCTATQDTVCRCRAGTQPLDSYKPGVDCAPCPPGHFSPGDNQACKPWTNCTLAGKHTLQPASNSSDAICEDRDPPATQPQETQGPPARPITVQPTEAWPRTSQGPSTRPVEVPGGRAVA
The assay can be described thus: ELISA, coated His-tagged CD134.
Further: test concentration or dose not given here.

B1: P018.S.11.A.B05 (antibody, V domains shown)
VH: QSVEESGGRLVTPGTPLTLTCTVSGFSLSTYNVAWVRQAPGKGLQYIGIMAFDGNTYYASWATGRFTISRTSTTVNLKITSPTTEDTATYFCCKGDPSSDTGTTLWGQGTLVTVSS
VL: AAVLTQTPSSASEPVGGTVTIKCQSSPSVYSNNWLAWFQQKPGQRPKLLIYAAAKLASGVPSRFRGSGSGTQFTLTISDVQSDDAATYYCAGGFNSDSDTTFGGGTEVVVK
notes: V regions on human Ig constant parts; also called AB134_26
Turning to B1, in assay [1], the “Functional assay Cross-linked by F(ab′)2 fragment IL-8” value (“Functional assay Cross-linked” for short) was determined as 1.83 abs. corr and the “Functional assay IL-8” value stood at 1.36 abs. corr. In addition, in assay [2], the “Cellular binding assay [RFU]” value is 456 RFU. In addition, the “ELISA [abs. corr.]” value in assay [3] worked out at 1.65 abs. corr.

B2: P018.S.11.A.E03 (antibody, V domains shown)
VH: QSVEESGGRLVTPGTPLTLTCTVSGFSLSSYAVSWVRQAPWKGLEWIGIISSGGNTYYASWATGRFTISKTSTTVDLKITSPTTEDTATYFCARGIHSYDDYLGYKLWGPGTLVTVSS
VL: AIEMTQSPPSLSASVGETVRIRCLASEFLFNAVSWYQQKPEKPPTLLISGASNLESGVPPRFSGSGSGTDYTLTIGGVQAEDVAAYYCLGGYKRADLTFGPGTKVEIK
notes: V regions on human Ig constant parts; also called AB134_34
For B2, in assay [1], the “Functional assay Cross-linked” value worked out at 1.79 abs. corr and the “Functional assay IL-8” value amounted to 0.481 abs. corr. In addition, in assay [2], the “Cellular binding assay [RFU]” value was 318 RFU. The “ELISA [abs. corr.]” value in assay [3] was 0.276 abs. corr.

B3: P018.S.02.A.F03 (antibody, V domains shown)
VH: QSVEESGGRLVTPGTPLTLTCTASGFSLSRYYMSWVRQAPGKGLEWIGFINTAGSAYYASWAKGRFTISRTSTTVDLKMTSLTTEDTATYFCARDLSRFSLWGRGTLVIVSS
VL: AAVLTQTPSPVSAAVGGTVTINCQASPSVYSDYLSWFQKKPGQPPKLLIYWASTLASGVPSRFSGSGSGTQFTLTISDLESDDVATYYCAGGYSGNSDNWAFGGGTDVVVK
notes: V regions on human Ig constant parts; also called AB134_2
As to B3, in assay [1], the “Functional assay Cross-linked” value was found to be 1.73 abs. corr and the “Functional assay IL-8” value stood at 0.09 abs. corr. For the same molecule, in assay [2], the “Cellular binding assay [RFU]” value came to 140 RFU. Moreover, the “ELISA [abs. corr.]” value in assay [3] came out at 2.85 abs. corr.

B4: P018.S.11.A.B04 (antibody, V domains shown)
VH: QEQLEESGGDLVKPEGSLTLTCTASGFSFSSAYYMCWVRQAPGKGLEWIACIDAGSSGSTYYASWAKGRFTISKTSSTTVTLQMTSLTAADTATYFCARDGGSTTGYGWLDLWGQGTLVTVSS
VL: AVVMTQTASPVSAAVGGTVTINCQASQSIGTNYLSWYQQKPGQPPKLLIYEASNLETGVPSRFKGSGSGTEYSLTISDLESADAATYYCLYSYYSSSSAYTFGGGTEVVVK
notes: V regions on human Ig constant parts; also called AB134_25
In the case of B4, in assay [1], the “Functional assay Cross-linked” value stood at 1.66 abs. corr and the “Functional assay IL-8” value is -0.087 abs. corr. Also, the “Cellular binding assay [RFU]” value in assay [2] came to 444 RFU. Further, the “ELISA [abs. corr.]” value in assay [3] amounted to 1.43 abs. corr.

B5: P018.S.12.A.D02 (antibody, V domains shown)
VH: QSVEESGGRLVTPGTPLTLTCTVSGFSLRHYAMSWVRQAPGKGLEWIGVITTTANTYYASWAKGRFTVSKASSTTVDLKIMSPTIEDTATYFCARAMGLYDSYVDVDDTHDAFDPWGPGTLVTVSS
VL: AQVLTQTASPVSAAVGGTVTINCQSSQSVYNSHVLSWYQQKPGQPPKLLIYDASNLASGVPSRFSASGSGTQFTLTISGVQSDDAATYYCLGGYDDDADNIFAFGGGTEVVVA
notes: V regions on human Ig constant parts; also called AB134_67
As for B5, in assay [1], the “Functional assay Cross-linked” value amounted to 1.77 abs. corr and the “Functional assay IL-8” value was 0.333 abs. corr. Also, the “Cellular binding assay [RFU]” value in assay [2] worked out at 472 RFU. The “ELISA [abs. corr.]” value in assay [3] was found to be 2.64 abs. corr.

B6: P018.S.11.A.G04 (antibody, V domains shown)
VH: QSVEESGGRLVTPGTPLTLTCTASGFDLSSYYMSWVRQAPGKGLEWIGIIYTDSSASYASWAKGRFTISRTSTTVDLKMTSPTTEDTATYFCARGLVVSTDNYNLWGPGTLVTVSS
VL: AAVLTQTPSPVSVAVGGTVTINCQASQSIYNNNYLAWFQQKPGQPPKLLIYYTSTLASGVPSRFKGSGSGTQFTLTINGVQSDDAATYYCLGDVGGGMRVFGGGTEVVVK
notes: V regions on human Ig constant parts; also called AB134_44
In the case of B6, in assay [1], the “Functional assay Cross-linked” value was 1.75 abs. corr and the “Functional assay IL-8” value was found to be 0.014 abs. corr. The “Cellular binding assay [RFU]” value in assay [2] was 482 RFU. Moreover, the “ELISA [abs. corr.]” value in assay [3] turned out to be 2.13 abs. corr.

B7: P018.S.11.A.H02 (antibody, V domains shown)
VH: QSVEESGGRLVTPGTPLTLTCTVSGFSLSNYAMSWVRQAPGKGLEWIGIISPSGNTYYANWAKGRFTISKTSTTVDLKITSPTTEDTATYFCAREGALYDDYGDYVDAFDPWGPGTLVTVSS
VL: AAVLTQTPSPVSAAVGGTVSISCQSSESVYNNNWLSWYQQKPGQPPKLLIYRASTLASGVPSRFKGSGSGTQFTLTISDVQSDDAATYYCAGGYSSSSDINAFGGGTEVVVK
notes: V regions on human Ig constant parts; also called AB134_46
Take B7: in assay [1], the “Functional assay Cross-linked” value was found to be 1.8 abs. corr and the “Functional assay IL-8” value was 0.783 abs. corr. In assay [2], the “Cellular binding assay [RFU]” value was 515 RFU. In addition, the “ELISA [abs. corr.]” value in assay [3] amounted to 2.8 abs. corr.

B8: P018.S.12.A.C05 (antibody, V domains shown)
VH: QSLEESGGRLVTPGTPLTLTCTASGFSLSNYYMNWVRQAPGKGLEWIGIIDKSGSAYYASWARGRFTISKTSTTVGLKIPSPTTEDTATYFCARGYGGYADHGLGLWGQGTLVTVSS
VL: DVVMTQTPASVSEPVGGTVTIKCQASQSIAGWLAWYQQKPGQPPKLLIYQASKLASGVPSRFSGSGSGTEYTLTISDLESDDAATYYCQCTYGSGSGSNGFGGGTEVVVK
notes: V regions on human Ig constant parts; also called AB134_65
With B8, in assay [1], the “Functional assay Cross-linked” value was 1.65 abs. corr and the “Functional assay IL-8” value is 0.228 abs. corr. Besides, the “Cellular binding assay [RFU]” value in assay [2] is 494 RFU. Further, the “ELISA [abs. corr.]” value in assay [3] amounted to 2.94 abs. corr.

B9: P018.S.12.A.G02 (antibody, V domains shown)
VH: QSLEESGGRLVTPGTPLTLTCTASGFSLNMFYMIWVRQAPGKGLEWIGMIDSMGSAWYASWAKGRFTISKTSTAVALKITSPTTEDTATYFCARAINGDGAGDLWGQGTLVTVSS
VL: DVVMTQTPASVSAAVGGTVTINCRASEKIDSFLAWYQQKPGQPPKLLIYGASELAPGVPSRFSGSGSGTDYTLTISALESADAATYYCQSTADGSDYVGTFGGGTEVVVK
notes: V regions on human Ig constant parts; also called AB134_84
As for B9, in assay [1], the “Functional assay Cross-linked” value is 1.81 abs. corr and the “Functional assay IL-8” value stood at 0.212 abs. corr. Besides, the “Cellular binding assay [RFU]” value in assay [2] stood at 530 RFU. Moreover, the “ELISA [abs. corr.]” value in assay [3] is 2.33 abs. corr.

B10: P018.S.12.A.C04 (antibody, V domains shown)
VH: QSLEESGGRLVTPGGSLTLTCTVSGIDLSRWTMSWVRQAPGKGLEWIGLIYASDDTVYASWAKGRFTISKTSTTVDLKITSPTTEDTATYFCVRVYGSTSGYYDLWGQGTLVTVSS
VL: DVVMTQTPASVSEPVGGTVTIKCQASQSISNWLAWYQQKPGQPPKLLIYYASTLASGVPSRFKGSGSGTQFTLTISDLESADAATYYCQNFGDGNSIGHAFGGGTEVVVK
notes: V regions on human Ig constant parts; also called AB134_64
For the molecule B10, in assay [1], the “Functional assay Cross-linked” value stood at 1.83 abs. corr and the “Functional assay IL-8” value was 0.215 abs. corr. The “Cellular binding assay [RFU]” value in assay [2] was found to be 509 RFU. Also, the “ELISA [abs. corr.]” value in assay [3] was determined as 2.04 abs. corr.

B11: P018.S.11.A.E06 (antibody, V domains shown)
VH: QSVEESGGRLVTPGTPLTLTCTASGFSLSSYYMSWVRQAPGKGLEWIGIIDTGSGDTWYATWAKGRFTISKTSTTVDLKMTSLTTEDTATYFCARVNPEFAHVWPYYFDLWGQGTLVTVSS
VL: ALVMTQTPASVEVAVGGTVTIKCQASQSISSNFLSWYQQNPGQPPKLLIDRASTLESGVPSRFKGSGSGTEFTLTISDLESADAATYYCQQGDSLSNVENAFGGGTELVVK
notes: V regions on human Ig constant parts; also called AB134_37
Turning to B11, in assay [1], the “Functional assay Cross-linked” value came out at 1.72 abs. corr and the “Functional assay IL-8” value stood at 0.278 abs. corr. For the same molecule, the “Cellular binding assay [RFU]” value in assay [2] is 554 RFU. The “ELISA [abs. corr.]” value in assay [3] was 2.05 abs. corr.
